In patent US20230192890A1 (published 2023):

Columns and labels:
[1] = biological target: T1, full-length recombinant human PAD4 (human, UniProt Q9UM07 1-663); experiment: Biacore T200, human PAD4 as analyte
T1 construct: also called peptidylarginine deiminase 4

[2] = biological target: T1, full-length recombinant human PAD4; experiment: Biacore T200, antibody captured by anti-human antibody, human PAD4 as analyte
Excerpt: The humanized anti-PAD4 antibodies derived from G8 and H7 were subjected to Biacore (GE Healthcare, Biacore T200) assay to evaluate their affinity. At that time, the combination of the frameworks was such that the H-chain framework was H4.00 and the L-chain framework was L4.29. The class of each antibody used was IgG1κ. Full-length recombinant human PAD4 was used as an antigen. A Human Antibody Capture kit (GE Healthcare, BR-1008-39) was used for the affinity assay. Specifically, in accordance with the standard protocol provided by the manufacture, NHS/EDC was used and an amine coupling method, in which a free carboxyl group is fixed on a surface of a CM5 chip, was used to immobilize a rabbit anti-human polyclonal antibody on the surface of a CM5 chip. Next, the humanized anti-PAD4 antibodies were each captured by the rabbit anti-human polyclonal antibody. Human PAD4 at each concentration was subjected to Biacore T200 measurement to create a kinetic sensorgram.

[3] = biological target: T1, full-length recombinant human PAD4; experiment: ELISA, human PAD4 on plate, antibody 0.0039063 ug/mL
[4] = biological target: T2, Ala mutant SEQ ID NO: 34 (human); experiment: ELISA, peptide on plate (10 ug/mL)
T2 peptide: EENMDDQAMQDEMEIGY

[5] = biological target: T3, Ala mutant having 3-amino acid substitution, SEQ ID NO: 45 (human); experiment: ELISA, peptide on plate (10 ug/mL)
T3 peptide: EENAAAQWMQDEMEIGY

[6] = biological target: T4, Ala mutant SEQ ID NO: 35 (human); experiment: ELISA, peptide on plate (10 ug/mL)
T4 peptide: EENMDDQWAQDEMEIGY

[7] = biological target: T5, Ala mutant having 3-amino acid substitution, SEQ ID NO: 46 (human); experiment: ELISA, peptide on plate (10 ug/mL)
T5 peptide: EENMDDAAAQDEMEIGY

[8] = biological target: T1, full-length recombinant human PAD4; experiment: ELISA, human PAD4 on plate, antibody 0.25 ug/mL
[9] = biological target: full-length recombinant human or mouse PAD4 (Example 4; which of the two is not told for the result); experiment: cell-based or functional assay
[10] = biological target: T1, full-length recombinant human PAD4; experiment: ELISA, human PAD4 on plate, antibody 1 ug/mL
[11] = biological target: T1, full-length recombinant human PAD4; experiment: ELISA, human PAD4 on plate, antibody 0.0002441 ug/mL
[12] = biological target: T1, full-length recombinant human PAD4; experiment: ELISA, human PAD4 on plate, antibody 6.104E-05 ug/mL
[13] = biological target: T1, full-length recombinant human PAD4; experiment: ELISA, human PAD4 on plate, antibody 0.0009766 ug/mL
[14] = biological target: T1, full-length recombinant human PAD4; experiment: ELISA, human PAD4 on plate, antibody 0.015625 ug/mL
[15] = biological target: T1, full-length recombinant human PAD4; experiment: ELISA, human PAD4 on plate, antibody 0.0625 ug/mL
[16] = biological target: T6, Ala mutant SEQ ID NO: 32 (human); experiment: ELISA, peptide on plate (10 ug/mL)
T6 peptide: EENMDAQWMQDEMEIGY

T1 sequence (Q9UM07 whole entry): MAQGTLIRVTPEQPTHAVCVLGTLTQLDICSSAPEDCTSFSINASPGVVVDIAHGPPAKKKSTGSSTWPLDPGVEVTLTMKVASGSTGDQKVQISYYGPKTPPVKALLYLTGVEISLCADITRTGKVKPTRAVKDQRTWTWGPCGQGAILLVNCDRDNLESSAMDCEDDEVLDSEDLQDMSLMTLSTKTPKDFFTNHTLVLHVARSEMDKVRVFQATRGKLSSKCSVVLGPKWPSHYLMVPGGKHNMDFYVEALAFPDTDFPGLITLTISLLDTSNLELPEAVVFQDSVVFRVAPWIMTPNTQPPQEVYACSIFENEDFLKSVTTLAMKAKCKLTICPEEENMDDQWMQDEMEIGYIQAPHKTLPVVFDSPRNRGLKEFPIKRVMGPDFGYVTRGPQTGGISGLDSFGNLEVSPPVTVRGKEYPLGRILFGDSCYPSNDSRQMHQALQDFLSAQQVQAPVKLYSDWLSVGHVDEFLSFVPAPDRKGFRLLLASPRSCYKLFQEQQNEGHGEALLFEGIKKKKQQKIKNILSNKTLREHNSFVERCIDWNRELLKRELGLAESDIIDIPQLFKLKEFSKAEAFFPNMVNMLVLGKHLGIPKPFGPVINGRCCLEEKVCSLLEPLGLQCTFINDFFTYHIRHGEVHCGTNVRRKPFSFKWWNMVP

B1: Humanized Ab #G8-H4.00/L4.29 (IgG1κ) (antibody, V domains shown)
VH: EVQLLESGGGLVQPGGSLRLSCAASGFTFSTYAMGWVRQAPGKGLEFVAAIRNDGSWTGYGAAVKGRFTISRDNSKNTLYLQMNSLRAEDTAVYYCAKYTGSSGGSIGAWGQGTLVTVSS
VL: SYELTQPPSVSVSPGQTARITCSGGNRNYYYGWYQQKPGQAPVTVIYANDKRPSGIPERFSGSNSGSTTTLTISGVQAEDEADYYCGTADTGKYVFGGGTKLTVLG
notes: Full-length heavy and light chains; also called humanized anti-PAD4 antibody derived from G8; G8 VH H4.00 / VL L4.29
[1]
  Kd: ≤ 9 nM

B2: Humanized Ab #H7-H4.00/L4.29 (IgG1κ) (antibody, V domains shown)
VH: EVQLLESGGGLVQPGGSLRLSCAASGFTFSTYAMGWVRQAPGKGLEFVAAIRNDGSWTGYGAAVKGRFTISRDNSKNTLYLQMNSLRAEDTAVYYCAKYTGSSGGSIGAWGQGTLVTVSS
VL: SYELTQPPSVSVSPGQTARITCSGGSGRYYYGWYQQKPGQAPVTVIYSSTHRPSGIPERFSGSNSGSTTTLTISGVQAEDEADYYCGTADSSSYVFGGGTKLTVLG
notes: Full-length heavy and light chains; also called humanized anti-PAD4 antibody derived from H7
[2]
  kon: 613000 M⁻¹ s⁻¹
[1]
  Kd: ≤ 9 nM

B3: A11 (antibody, IgG1, V domains shown)
VH: AVTLDESGGGLQTPGGALSLVCKASGFDFSSYGMGWMRQAPGKGLEYVAAIRNDGSWTGYGAAVKGHATISRDNGQSTVRLQLNNLRAEDTGTYYCAKTTGSRGGSIDAWGHGTEVIVS
VL: ASTQPSSVSANLGGTVEITCSGGGRYYYGWYQQKSPGSAPVTVIYANDKRPSDIPSRFSGSKSGSTGTLTITGVQAEDEAVYFCGSAETSSYVFGAGTTLTVL
notes: Chicken variable regions in mouse chimeric antibody (IgG1) expression vectors; also called anti-PAD4 antibody A11; A11 etc
[3]
  absorbance 490 nm/630 nm: 1.31 OD
[1]
  Kd: ≤ 9 nM
[4]
  absorbance 490 nm/630 nm: 0.021 OD
[5]
  absorbance 490 nm/630 nm: 0.039 OD
[6]
  absorbance 490 nm/630 nm: 0.023 OD
[7]
  absorbance 490 nm/630 nm: 0.043 OD
[8]
  absorbance 490 nm/630 nm: 2.11 OD
[9]
  Relative citrullination activity: 64 relative to PBS = 100
[10]
  absorbance 490 nm/630 nm: 2.15 OD
[11]
  absorbance 490 nm/630 nm: 0.206 OD
[12]
  absorbance 490 nm/630 nm: 0.063 OD
[13]
  absorbance 490 nm/630 nm: 0.511 OD
[14]
  absorbance 490 nm/630 nm: 2.08 OD
[15]
  absorbance 490 nm/630 nm: 2.15 OD

B4: H7 (antibody, IgG1, V domains shown)
VH: AVTLDESGGGLQTPGGALSLVCKASGFTFSTYAMGWMRQAPGKGLEYVAAIRNDGSWTGYGAAVKGRATILRDNGQSTVRLQLSNLRAEDTGTYYCAKYTGSSGGSIGAWGHGTEVIVS
VL: ASTQPSSVSANPGGTVEITCSGGSGRYYYGWYQQKSPGSAPVTVIYSSTHRPSNIPSRFSGSKSGSTATLTITGVQAEDEAVYFCGTADSSSYVFGAGTTLTVL
notes: Chicken variable regions in mouse chimeric antibody (IgG1) expression vectors; also called anti-PAD4 antibody H7; A11 etc
[3]
  absorbance 490 nm/630 nm: 1.35 OD
[1]
  Kd: ≤ 9 nM
[4]
  absorbance 490 nm/630 nm: 0.066 OD
[5]
  absorbance 490 nm/630 nm: 0.016 OD
[16]
  absorbance 490 nm/630 nm: 0.033 OD
[6]
  absorbance 490 nm/630 nm: 0.065 OD
[7]
  absorbance 490 nm/630 nm: 0.044 OD
[8]
  absorbance 490 nm/630 nm: 2.11 OD
[9]
  Relative citrullination activity: 35 relative to PBS = 100
[10]
  absorbance 490 nm/630 nm: 2.11 OD
[11]
  absorbance 490 nm/630 nm: 0.217 OD
[12]
  absorbance 490 nm/630 nm: 0.111 OD
[13]
  absorbance 490 nm/630 nm: 0.537 OD
[14]
  absorbance 490 nm/630 nm: 2.07 OD
[15]
  absorbance 490 nm/630 nm: 2.12 OD

B5: G8 (antibody, IgG1, V domains shown)
VH: AVTLDESGGGLQTPGGALSLVCKASGFTFSTYAMGWMRQAPGKGLEYVAAIRNDGSWTGYGAAVKGRATILRDNGQSTVRLQLSNLRAEDTGTYYCAKYTGSSGGSIGAWGHGTEVIVS
VL: ASTQPSSVSANLGGTVEITCSGGNRNYYYGWYQQKSPGSAPVTLIYANDKRPSNIPSRFSGSKSGSTGTLTITGVQAEDEAVYFCGTADTGKYVFGAGTTLTVL
notes: Chicken variable regions in mouse chimeric antibody (IgG1) expression vectors; also called anti-PAD4 antibody G8; A11 etc
[3]
  absorbance 490 nm/630 nm: 1.34 OD
[1]
  Kd: ≤ 9 nM
[4]
  absorbance 490 nm/630 nm: 0.04 OD
[5]
  absorbance 490 nm/630 nm: 0.065 OD
[16]
  absorbance 490 nm/630 nm: 0.083 OD
[6]
  absorbance 490 nm/630 nm: 0.233 OD
[8]
  absorbance 490 nm/630 nm: 2.1 OD
[9]
  Relative citrullination activity: 63 relative to PBS = 100
[10]
  absorbance 490 nm/630 nm: 2.12 OD
[11]
  absorbance 490 nm/630 nm: 0.184 OD
[12]
  absorbance 490 nm/630 nm: 0.1 OD
[13]
  absorbance 490 nm/630 nm: 0.544 OD
[14]
  absorbance 490 nm/630 nm: 2.08 OD
[15]
  absorbance 490 nm/630 nm: 2.12 OD

B6: G6 (antibody, IgG1, V domains shown)
VH: AVTLDESGGGLQTPGGALSLVCKASGFTFSSYGMEWVRQAPGKGLEYVAAIRNDGSWTGYGAAVKGRATISRDDGQSTLRLQLNNLRAEDTATYYCAKTTGSSGGSIDAWGHGTEVIVS
VL: ASTQPSSVSANLGETVKITCSGGGNYYYGWYQQKSPGSAPVTLIYANDKRPSNIPSRFSGSKSGSTGTLTITGVQAEDEAVYFCGTADTGKYVFGAGTTLTVL
notes: Chicken variable regions in mouse chimeric antibody (IgG1) expression vectors; also called anti-PAD4 antibody G6; A11 etc
[3]
  absorbance 490 nm/630 nm: 1.16 OD
[1]
  Kd: ≤ 9 nM
[4]
  absorbance 490 nm/630 nm: 0.042 OD
[5]
  absorbance 490 nm/630 nm: 0.018 OD
[16]
  absorbance 490 nm/630 nm: 0.035 OD
[6]
  absorbance 490 nm/630 nm: 0.015 OD
[7]
  absorbance 490 nm/630 nm: 0.083 OD
[8]
  absorbance 490 nm/630 nm: 2.07 OD
[9]
  Relative citrullination activity: 69 relative to PBS = 100
[10]
  absorbance 490 nm/630 nm: 2.11 OD
[11]
  absorbance 490 nm/630 nm: 0.166 OD
[12]
  absorbance 490 nm/630 nm: 0.075 OD
[13]
  absorbance 490 nm/630 nm: 0.437 OD
[14]
  absorbance 490 nm/630 nm: 2.01 OD
[15]
  absorbance 490 nm/630 nm: 2.12 OD

B7: E9 (antibody, IgG1, V domains shown)
VH: AVTLDESGGGLQTPGGTLSLVCKGSGFTFSSYGMGWMRQAPGKGLEYVAAIRNDGSWTGYGSAVKGRATISRDNGQSTVRLQLNNLRAEDTATYYCAKTSGSSGGSVDAWGHGTEVIVS
VL: ASTQPSSVSANLGGTVEITCSGGGRYYYGWYQQKSPGSAPVTVIYANDKRPSDIPSRFSGSKSGSTGTLTITGVQAEDEAVYFCGSAETSSYVFGAGTTLTVL
notes: Chicken variable regions in mouse chimeric antibody (IgG1) expression vectors; also called anti-PAD4 antibody E9; A11 etc
[3]
  absorbance 490 nm/630 nm: 1.36 OD
[1]
  Kd: ≤ 9 nM
[4]
  absorbance 490 nm/630 nm: 0.047 OD
[5]
  absorbance 490 nm/630 nm: 0.022 OD
[6]
  absorbance 490 nm/630 nm: 0.017 OD
[7]
  absorbance 490 nm/630 nm: 0.027 OD
[8]
  absorbance 490 nm/630 nm: 2.08 OD
[9]
  Relative citrullination activity: 59 relative to PBS = 100
[10]
  absorbance 490 nm/630 nm: 2.11 OD
[11]
  absorbance 490 nm/630 nm: 0.176 OD
[12]
  absorbance 490 nm/630 nm: 0.07 OD
[13]
  absorbance 490 nm/630 nm: 0.489 OD
[14]
  absorbance 490 nm/630 nm: 2.08 OD
[15]
  absorbance 490 nm/630 nm: 2.12 OD

B8: G9 (antibody, IgG1, V domains shown)
VH: AVTLDESGGGLQTPGGALSLVCKASGFTFSTYAMGWMRQAPGKGLEYVAAIRNDGSWTGYGAAVKGRATILRDNGQSTVRLQLSNLRAEDTGTYYCAKYTGSSGGSIGAWGHGTEVIVS
VL: AVTQPASVSANLGGTVEITCSGGGRYYYGWYQQKSPGSAPVTVIYANDKRPSDIPSRFSGSKSGSTGTLTITGVQAEDEAVYFCGSAETSSYVFGAGTTLTVL
notes: Chicken variable regions in mouse chimeric antibody (IgG1) expression vectors; also called anti-PAD4 antibody G9; A11 etc
[3]
  absorbance 490 nm/630 nm: 1.36 OD
[1]
  Kd: ≤ 9 nM
[4]
  absorbance 490 nm/630 nm: 0.038 OD
[5]
  absorbance 490 nm/630 nm: 0.019 OD
[16]
  absorbance 490 nm/630 nm: 0.039 OD
[6]
  absorbance 490 nm/630 nm: 0.253 OD
[8]
  absorbance 490 nm/630 nm: 2.08 OD
[9]
  Relative citrullination activity: 68 relative to PBS = 100
[10]
  absorbance 490 nm/630 nm: 2.1 OD
[11]
  absorbance 490 nm/630 nm: 0.187 OD
[12]
  absorbance 490 nm/630 nm: 0.082 OD
[13]
  absorbance 490 nm/630 nm: 0.534 OD
[14]
  absorbance 490 nm/630 nm: 2.07 OD
[15]
  absorbance 490 nm/630 nm: 2.11 OD
